Test [1] concerns the target T1, PRAME peptide, amino acids Arg310-Asn331 of PRAME, conjugated to biotin or BSA (UniProt P78395 310-331, conjugated to either biotin or bovine serum albumin (BSA); site not stated).
T1 construct: range 310-331
T1 peptide (looked up): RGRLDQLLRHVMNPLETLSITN
Put plainly: ELISA with monoclonal phage supernatants. The source says: 184 PRAME binding phage clones yielded 35 membrane target hits with 6 unique sequences. Clones with unique antibody sequences were chosen for further analysis.
(In an ELISA, binding on a coated surface is turned into a signal by an enzyme label.)

Test [2] addresses T2, PRAME (Preferentially Expressed Antigen in Melanoma) on PRAME+ cells (human, UniProt P78395 1-509).
T2 construct: whole, on cells; Endogenous PRAME on the THP-1 human cell line; also called THP-1 cells
Put plainly: flow cytometry, titrated antibody on THP-1 cells. The source says: MPA1 (Pankov et al., 2017), a rabbit anti-PRAME polyclonal antibody was included as reference for comparison.
(In general: A flow cytometer gives signals particle by particle.)

Usually EC50 stands for the midpoint of the concentration-response curve. Read a high EC50 as lower potency in that assay.

T2 sequence (P78395 whole entry): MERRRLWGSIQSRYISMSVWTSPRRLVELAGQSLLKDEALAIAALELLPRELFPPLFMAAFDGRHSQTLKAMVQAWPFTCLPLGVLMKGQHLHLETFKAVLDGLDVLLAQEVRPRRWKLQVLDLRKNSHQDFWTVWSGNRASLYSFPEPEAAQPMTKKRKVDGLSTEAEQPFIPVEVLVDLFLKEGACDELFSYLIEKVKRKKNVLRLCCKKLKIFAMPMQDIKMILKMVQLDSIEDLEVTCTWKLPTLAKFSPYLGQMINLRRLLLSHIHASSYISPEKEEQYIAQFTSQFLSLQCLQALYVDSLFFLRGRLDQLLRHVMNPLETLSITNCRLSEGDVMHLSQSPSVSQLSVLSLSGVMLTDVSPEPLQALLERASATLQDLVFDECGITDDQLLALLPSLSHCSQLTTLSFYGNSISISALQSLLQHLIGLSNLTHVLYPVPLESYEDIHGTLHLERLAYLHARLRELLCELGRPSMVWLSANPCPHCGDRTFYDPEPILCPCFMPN

B1: B029_1G7 scFv displayed on phage (monoclonal phage clone) (scFv, V domains shown)
VH: EVQLLESGGGLVQPGGSLRLSCAASGFTFTDSAMSWVRQAPGKGLEWVSDIDGSGSGGGTYYADSVKGRFTISRDNSKNTLYLQMNSLRAEDTAVYYCATDRGWGTFDFWGQGTLVTVSS
VL: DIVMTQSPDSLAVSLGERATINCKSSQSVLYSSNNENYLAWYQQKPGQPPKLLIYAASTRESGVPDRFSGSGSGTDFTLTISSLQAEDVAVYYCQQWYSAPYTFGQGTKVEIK
As to B1, in test [1], the binding result was “binds”.

B2: B029_1H1 scFv displayed on phage (monoclonal phage clone) (scFv, V domains shown)
VH: EVQLLESGGGLVQPGGSLRLSCAASGFTFSSYAMSWVRQAPGKGLEWVSEIDGEGDSTKYADSVKGRFTISRDNSKNTLYLQMNSLRAEDTAVYYCAKEYYDIFDGTDVWGQGTTVTVSS
VL: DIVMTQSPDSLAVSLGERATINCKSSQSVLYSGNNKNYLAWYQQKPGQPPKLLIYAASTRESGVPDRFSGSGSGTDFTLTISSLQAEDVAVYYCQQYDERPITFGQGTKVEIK
Consider B2, for which the binding result in test [1] is given as “binds”.

B3: B029_2D4 scFv displayed on phage (monoclonal phage clone) (scFv, V domains shown)
VH: EVQLLESGGGLVQPGGSLRLSCAASGFTFSSYAMSWVRQAPGKGLEWVSAISGSGDSTYYADSVKGRFTISRDNSKNTLYLQMNSLRAEDTAVYYCARDVDSFEGGMDVWGQGTTVTVSS
VL: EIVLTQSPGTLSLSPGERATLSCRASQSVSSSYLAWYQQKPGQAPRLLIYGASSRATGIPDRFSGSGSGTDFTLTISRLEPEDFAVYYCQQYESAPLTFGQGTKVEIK
For B3, the binding result in test [1] was “binds”.

B4: B029_1A6 scFv displayed on phage (monoclonal phage clone) (scFv, V domains shown)
VH: EVQLLESGGGLVQPGGSLRLSCAASGFTFSNYAMSWVRQAPGKGLEWVSAISGSGGSTYYADSVKGRFTISRDNSKNTLYLQMNSLRAEDTAVYYCARGGLVLSPWGQGTLVTVSS
VL: EIVLTQSPGTLSLSPGERATLSCRASQSVSSNSLAWYQQKPGQAPRLLIYDASSRATGIPDRFSGSGSGTDFTLTISRLEPEDFAVYYCQQYESSPLTFGQGTKVEIK
For the molecule B4, the binding result in test [1] is on record as “binds”.

B5: B029_2H1 scFv displayed on phage (monoclonal phage clone) (scFv, V domains shown)
VH: EVQLLESGGGLVQPGGSLRLSCAASGFTFTDYAMSWVRQAPGKGLEWVSWISGSGGSTKYADSVKGRFTISRDNSKNTLYLQMNSLRAEDTAVYYCAKCYDILTGYSIDYGMDVWGQGTTVTVSS
VL: EIVLTQSPGTLSLSPGERATLSCRASQSVSSTYLAWYQQKPGQAPRLLIYGASSRATGIPDRFSGSGSGTDFTLTISRLEPEDFAVYYCQQYSSAPFTFGQGTKVEIK
Take B5: in test [1], the binding result is “binds”.

B6: B029_1A7 full-length human IgG1 (antibody, V domains shown)
VH: EVQLLESGGGLVQPGGSLRLSCAASGFTFSSYWMSWVRQAPGKGLEWVSDISGSGGSTYYADSVKGRFTISRDNSKNTLYLQMNSLRAEDTAVYYCASLPDSSGYYHWFDPWGQGTLVTVSS
VL: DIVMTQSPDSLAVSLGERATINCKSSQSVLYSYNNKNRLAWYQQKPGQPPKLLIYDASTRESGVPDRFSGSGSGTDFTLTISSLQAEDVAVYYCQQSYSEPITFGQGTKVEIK
In test [2], B6 showed an EC50 of 1.45 nM.

B7: B029_1A7 scFv displayed on phage (monoclonal phage clone) (scFv, V domains shown)
VH: EVQLLESGGGLVQPGGSLRLSCAASGFTFSSYWMSWVRQAPGKGLEWVSDISGSGGSTYYADSVKGRFTISRDNSKNTLYLQMNSLRAEDTAVYYCASLPDSSGYYHWFDPWGQGTLVTVSS
VL: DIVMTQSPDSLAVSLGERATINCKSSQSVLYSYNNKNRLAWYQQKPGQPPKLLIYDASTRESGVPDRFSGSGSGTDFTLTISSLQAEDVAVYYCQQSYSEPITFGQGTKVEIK
B7: in test [1], the binding result was “binds”.
